This is an account of results in FireProtDB (doi:10.1016/j.jmb.2011.02.053).

Sequences and labels used below:
B1: Guanyl-specific ribonuclease Sa, P05798 (parent)
chain: DVSGTVCLSALPPEATDTLNLIASDGPFPYSQDGVVFQNRESVLPTQSYGYYHEYTVITPGARTRGTRRIITGEATQEDYYTGDHYATFSLIDQTC

The variants in the data set derive from B1. The settings on record: Kitasatospora aureofaciens; pH 7; Thermal; Fluorescence; MOPS 30mM; transition: 2; reversible: yes; structure 1RGG; whole UniProt chain shown.

In the case of DVSGTVCLSALPPEATDTLNLIASDGPFPYSQDGVVFQNRESVLPTQSYGYYHEYTVITPGARTRGTRRIITGEATQEDYYTGDHYATFSAIDQTC [L91A], the “change of melting temperature, mutant - wild type (higher = more stable)” value (from here on “change of melting temperature, mutant”) was -3.2 °C; the “ddG of mutation (higher = less stable)” value is 0.84 kcal/mol; the “unfolding enthalpy (calorimetric)” value was 91 kcal/mol.
Taken in the same sequence, the figures for DVSGTVCLSALPPEATDTLNLVASDGPFPYSQDGVVFQNRESVLPTQSYGYYHEYTVITPGARTRGTRRIITGEATQEDYYTGDHYATFSLIDQTC [I22V] were -5.7 °C, 1.48 kcal/mol and 74 kcal/mol.
Taken in the same sequence, the figures for DVSGTVCLSALPPEATDTLNLIASDGPFPYSQDGVVFQNRESVLPTQSYGYYHEYTVVTPGARTRGTRRIITGEATQEDYYTGDHYATFSLIDQTC [I58V] were 0.11 °C, 0 kcal/mol and 89 kcal/mol.
DVSGTVCLSALPPEATDTLNLIASDGPFPYSQDGVVFQNRESVLPTQSYGYYHEYTVITPGARTRGTRRIITGEATQEDYYTGDHYATFSLVDQTC [I92V]: the “change of melting temperature, mutant” value was -3.9 °C; the “ddG of mutation (higher = less stable)” value came out at 1 kcal/mol; the “unfolding enthalpy (calorimetric)” value is 84 kcal/mol.
Taken in the same sequence, the figures for DVSGTVCLSALPPEATDTLNAIASDGPFPYSQDGVVFQNRESVLPTQSYGYYHEYTVITPGARTRGTRRIITGEATQEDYYTGDHYATFSLIDQTC [L21A] were -1.6 °C, 0.41 kcal/mol and 85 kcal/mol.
Taken in the same sequence, the figures for DVSGTVCLSALPPEATDTANLIASDGPFPYSQDGVVFQNRESVLPTQSYGYYHEYTVITPGARTRGTRRIITGEATQEDYYTGDHYATFSLIDQTC [L19A] were -13.8 °C, 3.65 kcal/mol and 73 kcal/mol.
Taken in the same sequence, the figures for DVSGTVCLSALPPEATDTLNLIASDGPFPYSQDGVVFQNRESVLPTQSYGYYHEYTVITPGARTRGTRRIVTGEATQEDYYTGDHYATFSLIDQTC [I71V] were -0.3 °C, 0.13 kcal/mol and 80 kcal/mol.
DVSGTVCLSALPPEATDTLNLIASDGPFPYSQDGVVFQNRESVLPTQSYGYYHEYTVITPGARTRGTRRVITGEATQEDYYTGDHYATFSLIDQTC [I70V]: the “change of melting temperature, mutant” value is -3.4 °C; the “ddG of mutation (higher = less stable)” value stood at 0.94 kcal/mol; the “unfolding enthalpy (calorimetric)” value came to 87 kcal/mol.
Taken in the same sequence, the figures for DVSGTVCASALPPEATDTLNLIASDGPFPYSQDGVVFQNRESVLPTQSYGYYHEYTVITPGARTRGTRRIITGEATQEDYYTGDHYATFSLIDQTC [L8A] were -5 °C, 1.34 kcal/mol and 89 kcal/mol.
